Patent US20250066499A1 (SUNSHINE GUOJIAN PHARMACEUTICAL SHANGHAI, published 2025)
Like-named read-outs stand apart in the source and are kept apart here.

T1: human CD73-His protein (human, UniProt P21589 27-549)
T1 construct: Expressed in HEK-293F with a signal peptide that is not specified; In the ELISAs it was biotinylated with EZ-Link NHS-Biotin (CD73-biotin) and captured on streptavidin; in SPR and the enzyme assay it was used as CD73-His; also called CD73-his antigen; CD73-biotin
T1 sequence: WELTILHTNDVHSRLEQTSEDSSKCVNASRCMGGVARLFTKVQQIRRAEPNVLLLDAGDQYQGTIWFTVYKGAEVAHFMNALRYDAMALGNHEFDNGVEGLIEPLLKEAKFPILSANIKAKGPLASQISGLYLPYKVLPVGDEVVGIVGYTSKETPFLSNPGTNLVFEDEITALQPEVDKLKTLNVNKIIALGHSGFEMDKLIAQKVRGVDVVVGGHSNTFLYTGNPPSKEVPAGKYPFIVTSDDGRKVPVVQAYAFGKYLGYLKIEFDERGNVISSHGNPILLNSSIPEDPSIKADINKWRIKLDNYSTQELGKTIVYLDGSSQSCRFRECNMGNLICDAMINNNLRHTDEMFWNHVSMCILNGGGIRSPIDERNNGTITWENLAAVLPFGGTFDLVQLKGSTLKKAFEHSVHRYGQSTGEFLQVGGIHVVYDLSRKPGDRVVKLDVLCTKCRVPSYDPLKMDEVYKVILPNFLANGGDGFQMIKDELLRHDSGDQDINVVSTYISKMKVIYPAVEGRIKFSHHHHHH

T2: CD73-ND-his (human, UniProt P21589 27-317)
T2 construct: Biotinylated and captured on streptavidin in the ELISA
T2 sequence: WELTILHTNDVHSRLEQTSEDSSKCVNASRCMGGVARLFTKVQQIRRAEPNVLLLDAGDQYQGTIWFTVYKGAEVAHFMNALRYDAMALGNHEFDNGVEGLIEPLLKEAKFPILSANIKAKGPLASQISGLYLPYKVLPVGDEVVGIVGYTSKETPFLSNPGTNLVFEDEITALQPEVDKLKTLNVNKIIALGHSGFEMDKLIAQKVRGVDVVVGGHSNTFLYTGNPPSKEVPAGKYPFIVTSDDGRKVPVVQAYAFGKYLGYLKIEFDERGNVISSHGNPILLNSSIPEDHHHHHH

T3: CD73-ND-V140A (human, UniProt P21589 27-317)
T3 construct: Alanine mutant of CD73-ND
T3 sequence: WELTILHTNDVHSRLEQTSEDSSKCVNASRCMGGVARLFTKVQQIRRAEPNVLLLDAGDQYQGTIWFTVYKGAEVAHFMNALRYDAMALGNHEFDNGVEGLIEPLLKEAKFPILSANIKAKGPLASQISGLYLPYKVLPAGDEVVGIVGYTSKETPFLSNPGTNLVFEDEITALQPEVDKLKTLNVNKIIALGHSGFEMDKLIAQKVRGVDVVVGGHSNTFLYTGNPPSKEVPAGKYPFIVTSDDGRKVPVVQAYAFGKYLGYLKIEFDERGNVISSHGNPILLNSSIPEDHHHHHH

T4: CD73-ND-L184A (human, UniProt P21589 27-317)
T4 construct: Alanine mutant of CD73-ND
T4 sequence: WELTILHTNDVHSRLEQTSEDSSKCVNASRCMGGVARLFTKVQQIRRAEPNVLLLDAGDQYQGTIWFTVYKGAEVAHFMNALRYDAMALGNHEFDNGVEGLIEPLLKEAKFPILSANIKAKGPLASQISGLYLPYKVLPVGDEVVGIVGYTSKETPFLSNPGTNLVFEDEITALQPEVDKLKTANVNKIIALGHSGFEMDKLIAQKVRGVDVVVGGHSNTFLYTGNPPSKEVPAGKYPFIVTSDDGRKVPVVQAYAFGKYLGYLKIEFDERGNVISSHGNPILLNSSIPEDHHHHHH

T5: CD73-ND-P139A (human, UniProt P21589 27-317)
T5 construct: Alanine mutant of CD73-ND
T5 sequence: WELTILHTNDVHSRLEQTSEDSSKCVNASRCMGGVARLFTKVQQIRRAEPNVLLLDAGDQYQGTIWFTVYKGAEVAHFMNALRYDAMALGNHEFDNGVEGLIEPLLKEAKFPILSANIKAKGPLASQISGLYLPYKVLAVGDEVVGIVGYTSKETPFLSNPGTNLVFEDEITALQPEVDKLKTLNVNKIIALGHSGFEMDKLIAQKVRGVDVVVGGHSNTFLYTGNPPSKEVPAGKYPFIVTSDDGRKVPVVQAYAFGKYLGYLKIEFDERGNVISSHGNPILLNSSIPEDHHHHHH

B1: 56B10-HuV31 (antibody, human IgG4, V domains shown)
VH: QVQLQQSGAEVKKPGASVKVSCKASGYTFTRYYIYWVRQRPGQGLEWIGWIYPGNFNTKYNEKFKGRATLTADTSASTAYMELSSLTSEDTAVYYCARDVYDYAGFAYWGQGTLVTVSS
VL: DIQLTQSPSFLSASVGDRVTITCKASQGVATAVAWYQQKPGQSPKLLIYWASTRHTGVPDRFSGSGSGTEFTLTISSLQPEDFATYYCQQYSSYPWTFGQGTKVEIK
notes: Humanized
B2: 48A11-HuV33 (antibody, human IgG4, V domains shown)
VH: QVQLVQSGAEVKKPGASVKVSCKASGYTFTSYWMHWVRQAPGQGLEWIGEINPSIGRTNYNEKFKSRVTLTRDTSTSTAYMELSSLRSEDTAVYYCARRVYGTMDYWGQGTLVTVSS
VL: DIQMTQSPSSLSASVGDRVTITCKASQDINSYLSWFQQKPGKSPKLLIYRANIWVDGVPSRFSGSGSGQDYTFTISSLQPEDIATYYCLQYDELYTFGQGTKVEIK
notes: Humanized

Tests used:
human CD73-His protein [1] = target: T1, human CD73-His protein; assay: ELISA as in Example 3, antigen CD73-his, antibody titrated, absorbance 450 nm
CD73-ND-his = target: T2, CD73-ND-his; assay: ELISA as in Example 3, antigen CD73-ND-his, antibody titrated, absorbance 450 nm
CD73-ND-V140A = target: T3, CD73-ND-V140A; assay: ELISA; decline multiple of Top against CD73-ND
Description: (§1) The ELISA plates were coated with SA protein diluted to 1.5 μg/mL in coating buffer (50 mM carbonate coating buffer, pH 9.6) and incubated overnight at 4° C. The supernatant was discarded, and the plates were washed three times with PBST. Then, 5% skimmed milk powder prepared with PBS was added for blocking and the plates were incubated for 2 h at 37° C. After washing the plates once with PBST, CD73-biotin protein (prepared by biotinylating CD73-His protein according to the EZ-Link NHS-Biotin Reagent instructions) was diluted to 0.5 μg/mL and added at 100 μL/well for incubation at room temperature for 1 h. The plates were washed three times with PBST, and the prepared murine-derived monoclonal antibodies against human CD73 were serially diluted with 1% BSA buffer prepared with PBST and added to the ELISA plates at 100 μl/well. The plates were incubated at 37° C. for 1 h. After washing the plates three times with PBST, HRP-labeled goat anti-mouse IgG secondary antibody was added and the plates were incubated for 30 min at 37° C. After washing the plates three times with PBST, the residual droplets were patted dry on absorbent paper as much as possible. Then, 100 μl of TMB color developing solution was added to each well, and the plates were incubated in the dark at room temperature for 5 min for color development. Subsequently, 50 μl of 2M H₂SO₄ stop solution was added to each well to terminate the substrate reaction. The OD values were read at 450 nm using a multimode microplate reader to analyze the binding ability of the tested antibodies to the target antigen human CD73-His.
(§2) Referring to the experimental method in Example 3, the affinity of 48A11-HuV33 for various mutant proteins of CD73-ND was determined. The SA protein was diluted to 1 μg/mL for coating the ELISA plates, and the biotinylated CD73 protein (CD73-biotin) was used at a concentration of 0.1 μg/mL.

CD73-ND-L184A = target: T4, CD73-ND-L184A; assay: ELISA; decline multiple of Top against CD73-ND
Description: as §1, §2

CD73-ND-P139A = target: T5, CD73-ND-P139A; assay: ELISA; decline multiple of Top against CD73-ND
Description: as §1, §2

human CD73-His protein [2] = target: T1, human CD73-His protein; assay: ELISA as in Example 3, antigen CD73-his, antibody titrated, absorbance 450 nm; remark: listed apart in the source

| Binder | EC50 (read off the curve) (human CD73-His protein [1]) [nM] | EC50 (read off the curve) (CD73-ND-his) [nM] | Ratio(Top) (CD73-ND-V140A) [fold] | Ratio(Top) (CD73-ND-L184A) [fold] | Ratio(Top) (CD73-ND-P139A) [fold] | EC50 (read off the curve) (human CD73-His protein [2]) [nM] |
| --- | --- | --- | --- | --- | --- | --- |
| B1 | ~0.07 | – | – | – | – | – |
| B2 | – | ~0.04 | 1 | 1.2 | 2.3 | ~0.04 |
